Results published in the supplement of paper PMC10567573.

B1: SCNN1D (parent)
chain: RRPSPVLRHLELLDEFARENIDSL
B2: CHMP4C (parent)
chain: TNIRLPNVPSSSLPAQPNRKPGMS

Variants of: B1
Assay: protein stability index of a GFP-peptide fusion (GPS, HEK-293T) (PSI 1-6); higher = more stable
Details: c terminus: a fixed tail appended
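Further: lentivirally expressed fusions sorted by FACS into six bins by GFP to DsRed ratio, PSI derived from sequencing read proportions per bin multiplied by bin number.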

Protein stability index of substitutions, site by site:
L12: R 3.63, Q 4.51, M 3.98, P 4.4, G 4.09, F 2.81, H 4.25, W 3.1
P3: A 2.35, K 3.06, T 2.83
L7: A 3.04, G 4.17, K 3.82
E11: N 3.5, G 4.33, A 3.1
N20: F 2.52, T 1.93, E 1.88, V 2.54, L 2.17, M 1.77, K 3.34
H9: D 3.99, N 4.09
I21: F 2.74, R 2.96, S 3.85, H 3.61
R8: P 4.18, N 4.34
V6: C 2.72, R 2.43
S4: H 2.14, V 2.82, N 2.34
R2: Q 3.21
D22: Y 1.8, E 2.99, T 2.18, C 1.7, R 2.76
E19: Q 2.68, H 2.5, M 2.88, N 2.89, Y 2.39, A 3.18
R1: H 2.43, M 2.19, N 2.5
L13: T 4.13, S 4.26, Q 3.78, K 3.9, A 3.98
A17: V 2.94, C 3.38, S 4.37
L10: V 3.41, Q 3.84, K 4.33
P5: V 2.43, L 2.06, H 2.97, T 3.05, C 2.17, D 3.08
L24: W 2.06, N 3.29, V 2.67, R 3.17
E15: G 3.34, C 2.94, R 2.72, I 2.72, T 2.92
S23: E 2.92, N 2.94, R 3.44, L 2.72, Y 2.46
F16: D 4.61
R18: Y 2.7, A 2.37, D 3.44
D14: A 1.67, G 2.83, L 2.86

Variants of: B2
Assay: as above
Details: c terminus: a fixed tail appended

Protein stability index: each site, then its substitutions
P17: A 3.6, T 4.75, L 4.14, E 4.96, I 3.87, N 4.72, F 4.24, W 3.64, D 4.35, K 4.61, V 4.67, Y 4.05, R 4.2, Q 3.82, S 4.21, H 4.26, G 4.71, M 4.56, C 3.76
R19: S 4.71, Y 3.94, V 4.71, T 4.57, C 4.27, P 4.77, M 4.37, A 4.61, L 4.58, N 4.69, H 4.33, E 4.86, G 4.49, Q 4.62, D 4.66, K 4.33, F 4.13, I 4.61, W 3.6
S24: I 4.27, P 4.81, V 4.86, D 3.96, E 4.83, M 3.99, G 4.14, Q 4.69, A 4.48, Y 4.34, R 4.67, N 4.57, T 4.62, W 3.8, L 4.15, H 4.5, C 4.2, K 4.94, F 4.21
G22: L 4.22, P 4.24, M 4.2, T 4.21, F 4.2, N 5.03, D 4.78, H 4.32, A 4.48, Y 4.01, K 4.64, E 4.68, W 3.75, I 4.39, V 4.29, C 4.4, R 4.92, Q 4.88, S 4.08
A15: F 4.21, L 4.19, V 4.59, I 4.34, S 4.56, D 4.75, Y 4.26, P 4.71, G 4.69, E 4.64, N 4.44, W 4.01, R 4.71, M 4.16, H 4.59, Q 5.06, C 4.54, T 4.55, K 4.58
L13: H 4.25, A 4.88, W 4.45, K 4.46, G 4.27, D 4.4, N 4.52, I 4.54, V 4.88, Q 4.09, R 4.82, Y 4.1, E 4.25, T 5.11, S 4.76, C 4.47, M 4.6, F 4.35
Q16: E 4.69, M 3.7, H 4.44, S 4.91, N 4.73, K 4.03, T 4.53, F 4.05, Y 3.99, G 4.51, A 4.7, I 4.35, C 4.39, W 3.34, R 5.25, V 4.71, P 4.94, D 4.24, L 4.32
N18: S 4.21, R 4.69, L 4.25, F 4.33, C 3.97, V 4.6, D 4.51, W 3.42, A 4.45, K 4.62, T 4.89, Q 4.87, G 4.25, P 4.58, E 4.41, H 4.85, Y 4.36, I 4.3, M 4.66
P21: R 4.94, S 4.41, H 4.45, M 4.32, K 4.65, I 4.31, Y 4.05, T 4.47, C 4.24, D 4.59, V 4.14, A 5, Q 4.96, E 4.5, W 3.4, L 4.29, N 4.11, G 4.31, F 4.32
P14: S 4.69, C 3.94, R 4.4, N 4.41, Q 4.98, E 4.7, K 4.39, T 4.39, H 4.37, I 4.22, F 4.22, A 4.14, D 4.5, G 4.67, L 4.19, M 4.47, Y 3.67, W 4.01, V 4.93
S12: F 4.29, K 4.44, Q 4.66, W 3.25, M 4.33, D 4.67, P 4.34, I 4.56, T 4.07, E 5.06, V 4.8, N 4.68, L 3.44, G 4.27, Y 4.12, R 4.51, H 4.35
M23: W 3.96, D 5.58, T 5.17, F 4.42, I 4.37, P 4.28, Y 4.7, G 5.2, C 4.84, K 4.37, E 5.61, N 5.13, V 4.82, H 4.92, A 5.03, R 4.04, Q 5.23, S 5.17, L 4.88
K20: F 3.79, A 4.43, R 4.4, Y 4.02, V 3.66, C 4.3, Q 4.55, L 4.41, M 3.75, D 4.44, W 3.41, G 4.39, H 4.4, S 4.56, P 3.77, T 3.92, I 3.61, E 4.27, N 4.41
